T1: human BTLA (human, UniProt Q7Z6A9 31-289)
T1 construct: also called hBTLA; HEK293.hBTLA
T1 sequence: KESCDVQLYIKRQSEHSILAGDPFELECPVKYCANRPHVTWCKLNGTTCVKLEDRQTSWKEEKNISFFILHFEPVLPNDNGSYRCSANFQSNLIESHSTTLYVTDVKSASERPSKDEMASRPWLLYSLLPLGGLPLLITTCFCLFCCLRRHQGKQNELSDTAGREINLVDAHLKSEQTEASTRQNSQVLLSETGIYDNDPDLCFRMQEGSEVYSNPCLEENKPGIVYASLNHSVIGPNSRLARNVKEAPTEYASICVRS

B1: HFB6-5hz23-hG1 (antibody, human IgG1, V domains shown)
VH: QVQLQESGPGLVKPSGTLSLTCAASGVNIKDTYMYWVRQPPGKGLEWIGRIDPANGYTRYNPSFKSRATISADKSKNQASLKLSSVTAADTAVYYCAVYDGYYESFDVWGQGTLVTVSS
VL: DIVMTQSPDSLAVSLGERATINCKSSQSLLDSDGKTYLNWLQQKPGQSPKRLIYLVSKLDSGVPDRFSGSGSGTDFTLTISSVQAEDLAVYYCWQGTLFPRTFGQGTKLEIK
notes: Humanized variant of HFB6-5, human IgG1 (hG1)
B2: HFB6-5hz24-hG1 (antibody, human IgG1, V domains shown)
VH: EVQLVQSGAEVKKPGESLKISCKGSGVNIKDTYMYWVRQMPGKGLEWIGRIDPANGYTRYSPSFQGQVTISADKSISTAYLQLSSLKASDTAMYYCAVYDGYYESFDVWGQGTLVTVSS
VL: DIVMTQSPDSLAVSLGERATINCKSSQSLLDSDGKTYLNWLQQKPGQSPKRLIYLVSKLDSGVPDRFSGSGSGTDFTLTISSVQAEDLAVYYCWQGTLFPRTFGQGTKLEIK
notes: as for B1
B3: HFB6-4hz19-hG1 (antibody, human IgG1, V domains shown)
VH: QVQLVQSGAEVKKPGSSVKVSCKTSGFNIKDTYIHWVRQAPGQGLEWIGRNDPANGNTKYAQKFQGRATITADESTSTAYMELSSLRSEDTAVYYCASYEGYYERFGYWGQGTLVTVSS
VL: DIVMTQSPDSLAVSLGERATINCKSSQSLLDRDGKTYLNWLQQKPGQSPKRLIYLVSKLDSGVPDRFSGSGSGTDFTLTISSLQAEDLAVYYCWQDTHFPYTFGQGTKLEIK
notes: Humanized variant of HFB6-4, human IgG1 (hG1)
B4: HFB6-4hz7-hG1 (antibody, human IgG1, V domains shown)
VH: QVQLVQSGAEVKKPGSSVKVSCKTSGFNIKDTYIHWVRQAPGQGLEWIGRNDPANGNTKYAQKFQGRATITADESTSTAYMELSSLRSEDTAVYYCASYEGYYERFGYWGQGTLVTVSS
VL: DVVMTQSPLSLPVTLGQPASISCRSSQSLLDRDGKTYLNWLQQRPGQSPRRLIYLVSKRDSGVPDRFSGSGSGTDFTLKISRVEAEDVGVYYCWQDTHFPYTFGQGTKLEIK
notes: as for B3
B5: HFB6-4hz13-hG1 (antibody, human IgG1, V domains shown)
VH: QVQLVQSGAEVKKPGSSVKVSCKTSGFNIKDTYIHWVRQAPGQGLEWIGRNDPANGNTKYAQKFQGRATITADESTSTAYMELSSLRSEDTAVYYCASYEGYYERFGYWGQGTLVTVSS
VL: EIVLTQSPGTLSLSPGERATLSCRSSQSLLDRDGKTYLNWLQQKPGQAPRRLIYLVSKLDSGIPDRFSGSGSGTDFTLTISRLEPEDFAVYYCWQDTHFPYTFGQGTKLEIK
notes: as for B3
B6: HFB6-4hz11-hG1 (antibody, human IgG1, V domains shown)
VH: QVQLQESGPGLVKPSGTLSLTCAVSGFNIKDTYIHWVRQPPGKGLEWIGRNDPANGNTKYNPSFKSRATISADKSKNQASLKLSSVTAADTAVYYCASYEGYYERFGYWGQGTLVTVSS
VL: DVVMTQSPLSLPVTLGQPASISCRSSQSLLDRDGKTYLNWLQQRPGQSPRRLIYLVSKRDSGVPDRFSGSGSGTDFTLKISRVEAEDVGVYYCWQDTHFPYTFGQGTKLEIK
notes: as for B3
B7: HFB6-4hz12-hG1 (antibody, human IgG1, V domains shown)
VH: EVQLVQSGAEVKKPGESLKISCKTSGFNIKDTYIHWVRQMPGKGLEWIGRNDPANGNTKYSPSFQGQVTISADKSISTAYLQLSSLKASDTAMYYCASYEGYYERFGYWGQGTLVTVSS
VL: DVVMTQSPLSLPVTLGQPASISCRSSQSLLDRDGKTYLNWLQQRPGQSPRRLIYLVSKRDSGVPDRFSGSGSGTDFTLKISRVEAEDVGVYYCWQDTHFPYTFGQGTKLEIK
notes: as for B3
B8: HFB6-4hz8-hG1 (antibody, human IgG1, V domains shown)
VH: QVQLVQSGAEVKKPGASVKVSCKTSGFNIKDTYIHWVRQAPGQGLEWIGRNDPANGNTKYAQKFQGRVTMTADTSTSTVYMELSSLRSEDTAVYYCASYEGYYERFGYWGQGTLVTVSS
VL: DVVMTQSPLSLPVTLGQPASISCRSSQSLLDRDGKTYLNWLQQRPGQSPRRLIYLVSKRDSGVPDRFSGSGSGTDFTLKISRVEAEDVGVYYCWQDTHFPYTFGQGTKLEIK
notes: as for B3
B9: HFB6-4hz14-hG1 (antibody, human IgG1, V domains shown)
VH: QVQLVQSGAEVKKPGASVKVSCKTSGFNIKDTYIHWVRQAPGQGLEWIGRNDPANGNTKYAQKFQGRVTMTADTSTSTVYMELSSLRSEDTAVYYCASYEGYYERFGYWGQGTLVTVSS
VL: EIVLTQSPGTLSLSPGERATLSCRSSQSLLDRDGKTYLNWLQQKPGQAPRRLIYLVSKLDSGIPDRFSGSGSGTDFTLTISRLEPEDFAVYYCWQDTHFPYTFGQGTKLEIK
notes: as for B3
B10: HFB6-5-hG1 (human-mouse chimeric monoclonal antibody) (antibody, human IgG1, kappa, V domains shown)
VH: EVQLQQSGAELVKPGASVKLSCTASGVNIKDTYMYWVKQRPEQGLEWIGRIDPANGYTRYDPKFQGKATITADTSSNTAHLQLSSLTSEDAAVYYCAVYDGYYESFDVWGAGTTVTVSS
VL: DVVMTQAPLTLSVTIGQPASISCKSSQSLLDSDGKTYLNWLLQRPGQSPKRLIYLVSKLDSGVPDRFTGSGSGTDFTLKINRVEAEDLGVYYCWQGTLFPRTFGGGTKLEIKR
notes: also called HFB-5; HFB6-5 parental antibody
B11: HFB6-4hz17-hG1 (antibody, human IgG1, V domains shown)
VH: QVQLQESGPGLVKPSGTLSLTCAVSGFNIKDTYIHWVRQPPGKGLEWIGRNDPANGNTKYNPSFKSRATISADKSKNQASLKLSSVTAADTAVYYCASYEGYYERFGYWGQGTLVTVSS
VL: EIVLTQSPGTLSLSPGERATLSCRSSQSLLDRDGKTYLNWLQQKPGQAPRRLIYLVSKLDSGIPDRFSGSGSGTDFTLTISRLEPEDFAVYYCWQDTHFPYTFGQGTKLEIK
notes: as for B3
B12: HFB6-4hz18-hG1 (antibody, human IgG1, V domains shown)
VH: EVQLVQSGAEVKKPGESLKISCKTSGFNIKDTYIHWVRQMPGKGLEWIGRNDPANGNTKYSPSFQGQVTISADKSISTAYLQLSSLKASDTAMYYCASYEGYYERFGYWGQGTLVTVSS
VL: EIVLTQSPGTLSLSPGERATLSCRSSQSLLDRDGKTYLNWLQQKPGQAPRRLIYLVSKLDSGIPDRFSGSGSGTDFTLTISRLEPEDFAVYYCWQDTHFPYTFGQGTKLEIK
notes: as for B3
B13: HFB6-4hz3-hG1 (antibody, human IgG1, V domains shown)
VH: EVQLVESGGGLVQPGRSLRLSCTTSGFNIKDTYIHWFRQAPGKGLEWVGRNDPANGNTKYTASFKGRATISADGSKSIAYLQMNSLKTEDTAVYYCASYEGYYERFGYWGQGTLVTVSS
VL: DIQMTQSPSSLSASVGDRVTITCRSSQSLLDRDGKSYLNWLQQKPGKAPKRLIYLVSKLDSGVPSRFSGSGSGTDFTLTISSLQPEDFATYYCWQDTHFPYTFGQGTKLEIK
notes: as for B3
B14: HFB6-4hz15-hG1 (antibody, human IgG1, V domains shown)
VH: EVQLVESGGGLVQPGRSLRLSCTTSGFNIKDTYIHWFRQAPGKGLEWVGRNDPANGNTKYTASFKGRATISADGSKSIAYLQMNSLKTEDTAVYYCASYEGYYERFGYWGQGTLVTVSS
VL: EIVLTQSPGTLSLSPGERATLSCRSSQSLLDRDGKTYLNWLQQKPGQAPRRLIYLVSKLDSGIPDRFSGSGSGTDFTLTISRLEPEDFAVYYCWQDTHFPYTFGQGTKLEIK
notes: as for B3
B15: HFB6-4hz9-hG1 (antibody, human IgG1, V domains shown)
VH: EVQLVESGGGLVQPGRSLRLSCTTSGFNIKDTYIHWFRQAPGKGLEWVGRNDPANGNTKYTASFKGRATISADGSKSIAYLQMNSLKTEDTAVYYCASYEGYYERFGYWGQGTLVTVSS
VL: DVVMTQSPLSLPVTLGQPASISCRSSQSLLDRDGKTYLNWLQQRPGQSPRRLIYLVSKRDSGVPDRFSGSGSGTDFTLKISRVEAEDVGVYYCWQDTHFPYTFGQGTKLEIK
notes: as for B3
B16: HFB6-4hz6-hG1 (antibody, human IgG1, V domains shown)
VH: EVQLVQSGAEVKKPGESLKISCKTSGFNIKDTYIHWVRQMPGKGLEWIGRNDPANGNTKYSPSFQGQVTISADKSISTAYLQLSSLKASDTAMYYCASYEGYYERFGYWGQGTLVTVSS
VL: DIQMTQSPSSLSASVGDRVTITCRSSQSLLDRDGKSYLNWLQQKPGKAPKRLIYLVSKLDSGVPSRFSGSGSGTDFTLTISSLQPEDFATYYCWQDTHFPYTFGQGTKLEIK
notes: as for B3
B17: HFB6-4hz5-hG1 (antibody, human IgG1, V domains shown)
VH: QVQLQESGPGLVKPSGTLSLTCAVSGFNIKDTYIHWVRQPPGKGLEWIGRNDPANGNTKYNPSFKSRATISADKSKNQASLKLSSVTAADTAVYYCASYEGYYERFGYWGQGTLVTVSS
VL: DIQMTQSPSSLSASVGDRVTITCRSSQSLLDRDGKSYLNWLQQKPGKAPKRLIYLVSKLDSGVPSRFSGSGSGTDFTLTISSLQPEDFATYYCWQDTHFPYTFGQGTKLEIK
notes: as for B3
B18: HFB6-4hz10-hG1 (antibody, human IgG1, V domains shown)
VH: EVQLVESGGGLVQPGGSLKLSCATSGFNIKDTYIHWVRQASGKGLEWIGRNDPANGNTKYAASFKGRATISADDSKNTAYLQLNSLKTEDTAVYYCASYEGYYERFGYWGQGTLVTVSS
VL: DVVMTQSPLSLPVTLGQPASISCRSSQSLLDRDGKTYLNWLQQRPGQSPRRLIYLVSKRDSGVPDRFSGSGSGTDFTLKISRVEAEDVGVYYCWQDTHFPYTFGQGTKLEIK
notes: as for B3
B19: HFB6-4hz16-hG1 (antibody, human IgG1, V domains shown)
VH: EVQLVESGGGLVQPGGSLKLSCATSGFNIKDTYIHWVRQASGKGLEWIGRNDPANGNTKYAASFKGRATISADDSKNTAYLQLNSLKTEDTAVYYCASYEGYYERFGYWGQGTLVTVSS
VL: EIVLTQSPGTLSLSPGERATLSCRSSQSLLDRDGKTYLNWLQQKPGQAPRRLIYLVSKLDSGIPDRFSGSGSGTDFTLTISRLEPEDFAVYYCWQDTHFPYTFGQGTKLEIK
notes: as for B3
B20: HFB6-4hz4-hG1 (antibody, human IgG1, V domains shown)
VH: EVQLVESGGGLVQPGGSLKLSCATSGFNIKDTYIHWVRQASGKGLEWIGRNDPANGNTKYAASFKGRATISADDSKNTAYLQLNSLKTEDTAVYYCASYEGYYERFGYWGQGTLVTVSS
VL: DIQMTQSPSSLSASVGDRVTITCRSSQSLLDRDGKSYLNWLQQKPGKAPKRLIYLVSKLDSGVPSRFSGSGSGTDFTLTISSLQPEDFATYYCWQDTHFPYTFGQGTKLEIK
notes: as for B3

molecular target: T1, human BTLA; assay: flow cytometry, HEK293 cells overexpressing human BTLA
Procedure: HEK293 cells overexpressing human BTLA and Expi293 cells overexpressing cynomolus BTLA were incubated with different concentrations of humanized anti-BTLA antibodies. Anti-BTLA antibody binding to target cells were quantified with an AF647-conjugated anti-human IgG Fc secondary antibody by flow cytometry.

Does B1 bind?
Result: binds

Does B2 bind?
Result: binds

Does B3 bind?
Result: binds

Does B4 bind?
Result: binds

Does B5 bind?
Result: binds

Does B6 bind?
Result: binds

Does B7 bind?
Result: binds

Does B8 bind?
Result: binds

Does B9 bind?
Result: binds

Does B10 bind?
Result: binds

Does B11 bind?
Result: binds

Does B12 bind?
Result: binds

Does B13 bind?
Result: binds

Does B14 bind?
Result: binds

Does B15 bind?
Result: binds

Does B16 bind?
Result: binds

Does B17 bind?
Result: binds

Does B18 bind?
Result: binds

Does B19 bind?
Result: binds

Does B20 bind?
Result: binds
